Experimental data from US20250206839A1, “METHODS, COMPOSITIONS AND USES FOR SEMA7A MONOCLONAL ANTIBODIES” (THE REGENTS OF THE UNIVERSITY OF COLORADO, A BODY CORPORATE, priority 2022, published 2025).
“Also recorded” adds a separate entry of the source.

Key:
SEMA7A expressing cells = assay: Mammosphere formation and cell death in vitro; format: cell-based
Method: In another exemplary method, it was observed that SEMA7A was sufficient to promote stem cell phenotypes, including mammosphere formation, anchorage independent growth and resistance to chemotherapy, which is a property of cancer stem cells. Finally. SEMA7A expressing cells display increased functions and markers of cancer stem cells.
MCF10A and MCF12A cells were labeled with CellTrace Violet (ThermoFisher: #C34557) for 20 min at 37° C., according to the manufacturer's instructions. A sample of labeled cells was analyzed by flow cytometry to determine labeling efficiency and fluorescent intensity at time of seeding. Single cells were seeded at a density of 4000 cells/well in μltra-low attachment 24-well plates to induce mammosphere formation. Cells were cultured in normal culture media for 7 days and were subsequently counted, dissociated enzymatically in Accutase, (Stem Cell Technologies, Vancouver, Canada: #07922), and analyzed by flow cytometry. See flow cytometry methods for detailed information.

[1] = system: MCF10ADCIS GFP human breast cancer cells; assay: DCIS mouse model, tumor growth and invasion; format: in vivo; details: IP every third day from day 21
Method: DCIS model: Female SHO mice, aged 6-8 weeks old, are injected with 250,000 MCF10ADCIS GFP human breast cancer cells into both #4 mammary fat pads, then palpated and measured three times a week with digital calipers and tumor visualization is aided by use of the illumatool light source with GFP filter so we can accurately measure tumors. Treatment with SmAb started at day 21 post injection. SmAb treatment is given by IP injection every third day. Weights are taken every treatment day and mice are monitored for weight loss and other health/behavior changes.

SSM2 cells = assay: Cell viability, crystal violet, 48 h; format: cell-based, mouse; details: SSM2, 500 nM SmAbH1 vs 8 nM Fulvestrant
Method: (§1) For proliferation assays, cells were plated at 2000 cells per well of a 96-well dish. Four pictures of different regions in each well were taken every four hours for 48 h using an IncuCyte ZOOM (Essen BioScience, Ann Arbor, MI, USA). Percent confluence was determined using the IncuCyte ZOOM software (Essen BioScience). 66cl4 Sema7A DDK cells were plated in a 96-well plate in triplicate at 1,500 cells/well. They sat down over 24 hours and then were treated with 1000 nM IgG control, 10 nM SmAbH1, 100 nM SmAbH1, 200 nM SmAbH1, 500 nM SmAbH1, or 1000 nM SmAbH1. The plate was promptly transferred to the IncuCyte where photos were taken and analyzed every 4 hours for 7 days. For additional treatment studies in MCF7, TC11 and SSM2 cells ([…]) were plated in a 24-well plate in complete media and allowed to sit down over 24 hours. At 24 hours after plating, cells were treated with 500 nM IgG control, 500 nM SmAbH1, 8 nM Fulvestrant or the combination. The plate was incubated at 37 C for 48 hours, then fixed with 10% NBF and stained with crystal violet.

TC11 cells = assay: Cell viability, crystal violet, 48 h; format: cell-based, mouse; details: TC11, 500 nM SmAbH1 vs 8 nM Fulvestrant
Method: as §1

pNFκB in MDA231 cells = assay: Western blot for phosphorylation of NFκB; format: cell-based, human; details: MDA231, high SEMA7A
Method: (§2) In another exemplary method, the ability of the anti-SEMA7A monoclonal antibodies to affect cellular processes related to cell survival was tested. In one exemplary method, human triple negative breast cancer cell lines with low (MDA468) or high (MDA231) levels of SEMA7A were treated with SmAbH1 (CUH1) or commercially available monoclonal antibody-based inhibitors of an integrin receptor for SEMA7A (α6β1) and then evaluated using Western blot for phosphorylation of NFκB (pNFκB), a key survival marker.

pNFκB in MDA468 cells = assay: Western blot for phosphorylation of NFκB; format: cell-based, human; details: MDA468, low SEMA7A
Method: as §2

pSTAT3 in MDA231 cells = assay: Western blot for phosphorylation of STAT3; format: cell-based, human; details: MDA231, high SEMA7A
Excerpt: (§3) In another exemplary method the human triple negative breast cancer cell lines with low (MDA468) or high (MDA231) levels of SEMATA were again treated with SmAbH1 (CUH1) or commercially available monoclonal antibody-based inhibitors of an integrin receptor for SEMA7A (α6β1) and then evaluated using Western blot for phosphorylation of STAT3 (pSTAT3).

pSTAT3 in MDA468 cells = assay: Western blot for phosphorylation of STAT3; format: cell-based, human; details: MDA468, low SEMA7A
Excerpt: as §3

B1: SmAbH1: mouse monoclonal antibody against SEMA7A generated using the 10-mer immunizing peptide … (SEQ ID NO: 2) (antibody, V domains shown)
VH: QVKLQESGTVLARPGASVKMSCKASVYSFTSYWMHWVKQRPGQGLEWIGAIYPGNSDTSYNQKFKGKAKLTAVTSASTAYMELSSLTNEDSAVYYCTRGGAPTMITAYYAMDYWGQGTSVTVSS
VL: DIQMTQTTSSLSASLGDRVTISCRASQDISNYLNWYQQKPDGTVKLLIYYTSRLHSGVPSRFSGSGSGTDYSLTISNLEQEDIATYFCQQGNTLPWTFGGGTKLEIKR
- cell death (SEMA7A expressing cells): induce cell death
- mammosphere formation (SEMA7A expressing cells): reduce mammosphere formation
- tumor growth and invasion of ductal carcinoma in situ (DCIS) lesions [1]: block or inhibit tumor growth and invasion
- cell viability compared to fulvestrant (SSM2 cells): more significantly reduced
- cell viability compared to fulvestrant (TC11 cells): more significantly reduced
- downstream NFκB activation (pNFκB levels) (pNFκB in MDA231 cells): blocked downstream NFκB activation; also recorded: the effect was stronger
- downstream NFκB activation (pNFκB levels) (pNFκB in MDA468 cells): blocked downstream NFκB activation
- downstream STAT3 activation (pSTAT3) (pSTAT3 in MDA231 cells): blocking block downstream STAT3 activation similar to integrin blockade
- downstream STAT3 activation (pSTAT3) (pSTAT3 in MDA468 cells): blocking block downstream STAT3 activation similar to integrin blockade
